The target of the assay is intranuclear antigens consisting of histone DNA complexes (in fixed Raji cells). Briefly: 125I-labeled MAb incubated with fixed Raji cells; Scatchard analysis of bound radioactivity.

With “chimeric TNT-1 monoclonal antibody (chTNT-1)”, the Ka was determined as 2.5e+09 M⁻¹.
